Measurements published in publication PMC11369174, “Proteome-scale characterisation of motif-based interactome rewiring by disease mutations” (Molecular Systems Biology, 2024).

B1: ESPN (protein, UniProt B1AK53 1-854, looked up)
Espin: MALEQALQAARQGELDVLRSLHAAGLLGPSLRDPLDALPVHHAARAGKLHCLRFLVEEAALPAAARARNGATPAHDASATGHLACLQWLLSQGGCRVQDKDNSGATVLHLAARFGHPEVVNWLLHHGGGDPTAATDMGALPIHYAAAKGDFPSLRLLVEHYPEGVNAQTKNGATPLYLACQEGHLEVTQYLVQECGADPHARAHDGMTPLHAAAQMGHSPVIVWLVSCTDVSLSEQDKDGATAMHFAASRGHTKVLSWLLLHGGEISADLWGGTPLHDAAENGELECCQILVVNGAELDVRDRDGYTAADLSDFNGHSHCTRYLRTVENLSVEHRVLSRDPSAELEAKQPDSGMSSPNTTVSVQPLNFDLSSPTSTLSNYDSCSSSHSSIKGQHPPCGLSSARAADIQSYMDMLNPELGLPRGTIGKPTPPPPPPSFPPPPPPPGTQLPPPPPGYPAPKPPVGPQAADIYMQTKNKLRHVETEALKKELSSCDGHDGLRRQDSSRKPRAFSKQPSTGDYYRQLGRCPGETLAARPGMAHSEEVRARQPARAGCPRLGPAARGSLEGPSAPPQAALLPGNHVPNGCAADPKASRELPPPPPPPPPPLPEAASSPPPAPPLPLESAGPGCGQRRSSSSTGSTKSFNMMSPTGDNSELLAEIKAGKSLKPTPQSKGLTTVFSGIGQPAFQPDSPLPSVSPALSPVRSPTPPAAGFQPLLNGSLVPVPPTTPAPGVQLDVEALIPTHDEQGRPIPEWKRQVMVRKMQLKMQEEEEQRRKEEEEEARLASMPAWRRDLLRKKLEEEREQKRKEEERQKQEELRREKEQSEKLRTLGYDESKLAPWQRQVILKKGDIAKY
B2: FANCG (protein, UniProt O15287 1-622, looked up)
Fanconi anemia group G protein: MSRQTTSVGSSCLDLWREKNDRLVRQAKVAQNSGLTLRRQQLAQDALEGLRGLLHSLQGLPAAVPVLPLELTVTCNFIILRASLAQGFTEDQAQDIQRSLERVLETQEQQGPRLEQGLRELWDSVLRASCLLPELLSALHRLVGLQAALWLSADRLGDLALLLETLNGSQSGASKDLLLLLKTWSPPAEELDAPLTLQDAQGLKDVLLTAFAYRQGLQELITGNPDKALSSLHEAASGLCPRPVLVQVYTALGSCHRKMGNPQRALLYLVAALKEGSAWGPPLLEASRLYQQLGDTTAELESLELLVEALNVPCSSKAPQFLIEVELLLPPPDLASPLHCGTQSQTKHILASRCLQTGRAGDAAEHYLDLLALLLDSSEPRFSPPPSPPGPCMPEVFLEAAVALIQAGRAQDALTLCEELLSRTSSLLPKMSRLWEDARKGTKELPYCPLWVSATHLLQGQAWVQLGAQKVAISEFSRCLELLFRATPEEKEQGAAFNCEQGCKSDAALQQLRAAALISRGLEWVASGQDTKALQDFLLSVQMCPGNRDTYFHLLQTLKRLDRRDEATALWWRLEAQTKGSHEDALWSLPLYLESYLSWIRPSDRDAFLEEFRTSLPKSCDL
B3: O60832 (protein, UniProt O60832 1-514, looked up)
chain: MADAEVIILPKKHKKKKERKSLPEEDVAEIQHAEEFLIKPESKVAKLDTSQWPLLLKNFDKLNVRTTHYTPLACGSNPLKREIGDYIRTGFINLDKPSNPSSHEVVAWIRRILRVEKTGHSGTLDPKVTGCLIVCIERATRLVKSQQSAGKEYVGIVRLHNAIEGGTQLSRALETLTGALFQRPPLIAAVKRQLRVRTIYESKMIEYDPERRLGIFWVSCEAGTYIRTLCVHLGLLLGVGGQMQELRRVRSGVMSEKDHMVTMHDVLDAQWLYDNHKDESYLRRVVYPLEKLLTSHKRLVMKDSAVNAICYGAKIMLPGVLRYEDGIEVNQEIVVITTKGEAICMAIALMTTAVISTCDHGIVAKIKRVIMERDTYPRKWGLGPKASQKKLMIKQGLLDKHGKPTDSTPATWKQEYVDYSESAKKEVVAEVVKAPQVVAEAAKTAKRKRESESESDETPPAAPQLIKKEKKKSKKDKKAKAGLESGAEPGDGDSDTTKKKKKKKKAKEVELVSE
modifications: full-length
B4: O60934 (protein, UniProt O60934 1-754, looked up)
chain: MWKLLPAAGPAGGEPYRLLTGVEYVVGRKNCAILIENDQSISRNHAVLTANFSVTNLSQTDEIPVLTLKDNSKYGTFVNEEKMQNGFSRTLKSGDGITFGVFGSKFRIEYEPLVACSSCLDVSGKTALNQAILQLGGFTVNNWTEECTHLVMVSVKVTIKTICALICGRPIVKPEYFTEFLKAVESKKQPPQIESFYPPLDEPSIGSKNVDLSGRQERKQIFKGKTFIFLNAKQHKKLSSAVVFGGGEARLITEENEEEHNFFLAPGTCVVDTGITNSQTLIPDCQKKWIQSIMDMLQRQGLRPIPEAEIGLAVIFMTTKNYCDPQGHPSTGLKTTTPGPSLSQGVSVDEKLMPSAPVNTTTYVADTESEQADTWDLSERPKEIKVSKMEQKFRMLSQDAPTVKESCKTSSNNNSMVSNTLAKMRIPNYQLSPTKLPSINKSKDRASQQQQTNSIRNYFQPSTKKRERDEENQEMSSCKSARIETSCSLLEQTQPATPSLWKNKEQHLSENEPVDTNSDNNLFTDTDLKSIVKNSASKSHAAEKLRSNKKREMDDVAIEDEVLEQLFKDTKPELEIDVKVQKQEEDVNVRKRPRMDIETNDTFSDEAVPESSKISQENEIGKKRELKEDSLWSAKEISNNDKLQDDSEMLPKKLLLTEFRSLVIKNSTSRNPSGINDDYGQLKNFKKFKKVTYPGAGKLPHIIGGSDLIAHHARKNTELEEWLRQEMEVQNQHAKEESLADDLFRYNPYLKRRR
modifications: full-length

Legend:
ABL1 SH3 = ABL1 SH3 (Homo sapiens, UniProt P00519); assay: GenVar_HD2 ProP-PD phage selection, ABL1 SH3; format: binding; conditions: bait domain-prey protein level, bait ABL1_SH3__P00519_60_121
ABL1 SH3, sequence (P00519 60-121): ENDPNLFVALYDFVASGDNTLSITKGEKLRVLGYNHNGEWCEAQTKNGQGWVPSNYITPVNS

KPNA4 ARM = assay: GenVar_HD2 ProP-PD phage selection, KPNA4 ARM; format: binding, human; conditions: bait-prey protein level, bait_accession O00629

Row | Molecule | max_promiscuity (ABL1 SH3) | max_specificity (ABL1 SH3) | max_promiscuity (KPNA4 ARM) | max_specificity (KPNA4 ARM)
1 | B1 | 2 | 0.8421 |  | 
2 | B2 | 5 | 1 |  | 
3 | B3 |  |  | 3 | 1
4 | B4 |  |  | 1 | 1
